We go through two molecules from publication PMC5224236 (ACS Chemical Biology, 2016).

Assay in all cases: SPR
(SPR reads the build-up and loss of mass on a sensor chip optically.)

Experiment [1] addresses T1, full-length wild-type p97/VCP (UniProt P55072 1-806).
In experiment [2] the target is T1, full-length wild-type p97/VCP. The source holds these as a separate data set.
For experiment [3] the target is unchanged. This is another data set of the same source.
Experiment [4] deals with full-length p97 A232E (MSP1 mutant) (UniProt P55072 1-806, A232E).
For experiment [5], the target named is full-length p97 R155H (MSP1 mutant) (UniProt P55072 1-806, R155H).

Where two headings read alike, the source gives them in different places.

T1 sequence (P55072 whole entry): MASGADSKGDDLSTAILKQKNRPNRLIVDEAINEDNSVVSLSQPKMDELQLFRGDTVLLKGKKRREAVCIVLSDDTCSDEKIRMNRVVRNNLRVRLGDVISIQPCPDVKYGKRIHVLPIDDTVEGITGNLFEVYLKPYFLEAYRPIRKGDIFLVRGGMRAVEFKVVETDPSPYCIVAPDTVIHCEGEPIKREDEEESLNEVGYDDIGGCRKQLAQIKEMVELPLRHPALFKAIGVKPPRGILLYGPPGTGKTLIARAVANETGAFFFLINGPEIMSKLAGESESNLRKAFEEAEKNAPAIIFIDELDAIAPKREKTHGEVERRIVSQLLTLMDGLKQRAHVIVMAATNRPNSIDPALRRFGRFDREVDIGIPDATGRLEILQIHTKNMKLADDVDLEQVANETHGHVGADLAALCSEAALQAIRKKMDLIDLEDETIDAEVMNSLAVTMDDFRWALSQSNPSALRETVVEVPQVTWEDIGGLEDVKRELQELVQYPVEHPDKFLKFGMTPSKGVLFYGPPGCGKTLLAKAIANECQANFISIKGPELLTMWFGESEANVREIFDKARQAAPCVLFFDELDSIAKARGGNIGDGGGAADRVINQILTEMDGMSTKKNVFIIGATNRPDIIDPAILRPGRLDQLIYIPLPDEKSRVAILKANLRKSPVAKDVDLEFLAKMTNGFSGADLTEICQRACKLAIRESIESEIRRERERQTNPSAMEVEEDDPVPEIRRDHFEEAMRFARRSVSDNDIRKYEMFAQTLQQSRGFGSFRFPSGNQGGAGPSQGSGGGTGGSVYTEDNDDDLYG
full-length p97 R155H (MSP1 mutant), sequence (P55072 whole entry R155H): as the sequence (P55072 whole entry) above, with R155H counted along it
full-length p97 A232E (MSP1 mutant), sequence (P55072 whole entry A232E): as the sequence (P55072 whole entry) above, with A232E counted along it

B1: p37 (natural protein, human, UniProt Q14CS0 1-331, looked up)
chain: MAEGGGPEPGEQERRSSGPRPPSARDLQLALAELYEDEVKCKSSKSNRPKATVFKSPRTPPQRFYSSEHEYSGLNIVRPSTGKIVNELFKEAREHGAVPLNEATRASGDDKSKSFTGGGYRLGSSFCKRSEYIYGENQLQDVQILLKLWSNGFSLDDGELRPYNEPTNAQFLESVKRGEIPLELQRLVHGGQVNLDMEDHQDQEYIKPRLRFKAFSGEGQKLGSLTPEIVSTPSSPEEEDKSILNAVVLIDDSVPTTKIQIRLADGSRLIQRFNSTHRILDVRNFIVQSRPEFAALDFILVTSFPNKELTDESLTLLEADILNTVLLQQLK
Regarding B1, the results for the dissociation constant (Kd) in experiment [1], in experiment [2] and in experiment [3] were 372 nM, 19 nM and 46 nM, respectively.

B2: full-length human p47 (natural protein, UniProt Q9UNZ2 1-370, looked up)
chain: MAAERQEALREFVAVTGAEEDRARFFLESAGWDLQIALASFYEDGGDEDIVTISQATPSSVSRGTAPSDNRVTSFRDLIHDQDEDEEEEEGQRFYAGGSERSGQQIVGPPRKKSPNELVDDLFKGAKEHGAVAVERVTKSPGETSKPRPFAGGGYRLGAAPEEESAYVAGEKRQHSSQDVHVVLKLWKSGFSLDNGELRSYQDPSNAQFLESIRRGEVPAELRRLAHGGQVNLDMEDHRDEDFVKPKGAFKAFTGEGQKLGSTAPQVLSTSSPAQQAENEAKASSSILIDESEPTTNIQIRLADGGRLVQKFNHSHRISDIRLFIVDARPAMAATSFILMTTFPNKELADESQTLKEANLLNAVIVQRLT
For the molecule B2, the “KD, high-affinity site (two-site fit)” value in experiment [4] turned out to be 21 nM; in experiment [5] it was 18 nM; in experiment [1], 184 nM.
